Tests used:
[1] = molecular target: T1, SplF-His6 (S. aureus strain 8325-4) (UniProt Q2FXC8)
T1 sequence: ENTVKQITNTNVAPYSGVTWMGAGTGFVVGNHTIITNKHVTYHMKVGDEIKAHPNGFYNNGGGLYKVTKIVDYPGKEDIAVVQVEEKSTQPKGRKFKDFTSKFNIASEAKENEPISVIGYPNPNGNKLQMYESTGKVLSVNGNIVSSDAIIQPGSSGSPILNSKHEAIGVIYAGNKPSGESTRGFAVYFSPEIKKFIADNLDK

[2] = molecular target: Met-Gly-SplF-His6 (S. aureus strain 8325-4) (UniProt Q2FXC8)
[3] = molecular target: T2, His6-SplF (S. aureus strain 8325-4) (UniProt Q2FXC8)
T2 sequence: T1 sequence

Substance: ABZ-Tyr-Met-Leu-Ser-ANB-NH2 (peptide)
- KM of ABZ-Tyr-Met-Leu-Ser-ANB-NH2 hydrolysis (Michaelis-Menten fit, PBS, 37 °C) [1]: 30.8 µM
- KM of ABZ-Tyr-Met-Leu-Ser-ANB-NH2 hydrolysis (Michaelis-Menten fit, PBS, 37 °C) [2]: 18.2 µM
- KM of ABZ-Tyr-Met-Leu-Ser-ANB-NH2 hydrolysis (Michaelis-Menten fit, PBS, 37 °C) [3]: 21.4 µM

Reference: article PMC7926377
